In test [1] the target is T1, human O8E (B7-H4) expressed on cells (human, UniProt Q7Z7D3 25-282).
T1 construct: Full length O8E on transfected HEK, CHO and SKOV3 cells, or endogenous on SKBR3 and ZR-75 cells and in human tumour biopsies; also called B7S1; B7x
T1 sequence: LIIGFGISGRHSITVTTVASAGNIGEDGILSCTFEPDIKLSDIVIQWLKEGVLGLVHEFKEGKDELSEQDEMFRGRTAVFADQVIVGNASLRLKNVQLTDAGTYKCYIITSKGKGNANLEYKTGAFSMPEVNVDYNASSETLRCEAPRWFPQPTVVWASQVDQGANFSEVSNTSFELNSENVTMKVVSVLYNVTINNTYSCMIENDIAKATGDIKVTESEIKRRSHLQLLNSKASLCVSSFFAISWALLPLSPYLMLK
Put plainly: titration of labelled antibody on O8E-transfected cells (Scatchard set-up), sigmoidal dose response fit.
Method: HEK cells were transfected with full length O8E using standard techniques and grown in RPMI media containing 10% fetal bovine serum (FBS). […] Millipore plates (MAFB NOB) were coated with 1% nonfat dry milk in water and stored a 4° C. overnight. The plates were washed three times with 0.2 ml of binding buffer. Fifty microliters of buffer alone was added to the maximum binding wells (total binding). Twenty-five microliters of buffer alone was added to the control wells (non-specific binding). Varying concentration of ¹²⁵I-anti-O8E antibody was added to all wells in a volume of 25 μl. (In some cases FITC labeled antibodies were used for the titration since unlabeled material was not available, binding may be compromised in these instances.) Varying concentrations of unlabeled antibody at 100 fold excess was added in a volume of 25 μl to control wells and 25 μl of O8E transfected CHO cells (2×10⁶ cells/ml) in binding buffer were added to all wells. The plates were incubated for 2 hours at 200 RPM on a shaker at 4° C. At the completion of the incubation the Millipore plates were washed three times with 0.2 ml of cold wash buffer (24 mM Tris pH 7.2, 500 mM NaCl, 2.7 mM KCl, 2 mM Glucose, 1 mM CaCl₂, 1 mM MgCl₂, 0.1% BSA.). The filters were removed and counted in a gamma counter. […]

Test [2] has as its target T2, Recombinant Penta-B7H4 protein with a C-9 tag (human, UniProt Q7Z7D3 25-259).
T2 construct: also called Penta-O8E; Penta-B7H4-C9; not shown: 'Penta' part and C-9 tag
T2 sequence: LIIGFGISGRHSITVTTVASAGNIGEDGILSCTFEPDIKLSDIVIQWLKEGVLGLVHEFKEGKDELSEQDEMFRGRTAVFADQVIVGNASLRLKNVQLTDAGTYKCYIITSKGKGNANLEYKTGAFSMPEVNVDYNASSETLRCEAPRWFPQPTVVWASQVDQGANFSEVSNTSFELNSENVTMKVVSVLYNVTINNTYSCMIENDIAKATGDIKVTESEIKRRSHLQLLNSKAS
Put plainly: ELISA: anti-mouse Fc coat, monoclonal anti-C9 at 0.6 ug/ml, Penta-B7H4 titrated (varied component), human antibody fixed at 1 ug/ml. (In an ELISA, binding on a coated surface is turned into a signal by an enzyme label.)

For test [3], the target named is T1, human O8E (B7-H4) expressed on cells. Put plainly: titration of labelled antibody on O8E-transfected cells (Scatchard set-up), sigmoidal dose response fit; BOTTOM and TOP fixed for incomplete curve.

Three molecules from patent US20110085970A1 (published 2011) can be followed below.

B1: 1G11 human monoclonal antibody (anti-O8E / anti-B7-H4) (antibody, V domains shown)
VH: QVQLQQWGAGLLKPSETLSLTCAVYGGSFSDYFWTWIRQPPGKGLEWIGEINHSGTTNYNPSLKSRVTISADTSKNQFSLRLSSVTAADTAVYYCARLSSWSNWAFEYWGQGTLVTVSS
VL: EIVLTQFPGTLSLSPGERATLSCRASQSVSSTYLAWYQQKPGQAPRVLIYGASRRATGIPDRFSGSGSGTDFTLTISRLEPEDFAVYYCQQYGSSPLTFGGGTKVEIK
notes: Hybridoma-derived fully human IgG with a kappa light chain (VK A27); also called 1G11.H11-FITC; 1G11.H1
Usually EC50 stands for the concentration needed to bring the measured effect to its halfway point. Read a low EC50 as higher potency in that assay. B1 yielded an EC50 in test [1] of 1.69 nM.

B2: 13D12 human monoclonal antibody (anti-O8E / anti-B7-H4) (antibody, V domains shown)
VH: QVQLQQWGAGLLKPSETLSLTCAVYGGSFSGYYWSWIRQPPGKGLEWIGKINHSGSTNYNPSLKSRVTISVDTSKNQFSLKLNSVTAADTAVYYCARELRYFENYYYGMDVWGQGTTVTVSS
VL: not shown
notes: Hybridoma-derived fully human IgG with a kappa light chain (VK A27); also called 13D12.G10
The molecule B2 registered an EC50 in test [1] of 0.746 nM.

B3: 12E1 human monoclonal antibody (anti-O8E / anti-B7-H4) (antibody, V domains shown)
VH: EVQLVESGGGLVQPGRSLRLSCVASGFTFDDYAMHWVRQAPGKGLEWVSGISWNSGSIGYADSVKGRFTISRDNAKNSLYLQMNSLRAEDTALYYCTKALYGSGSSDFYYYGMDVWGQGTTVAVSS
VL: EIVLTQSPATLSLSPGERATLSCRASQSVSSYLAWYQQKPGQAPRLLIYDASNRATGIPARFSGSGSGTDFTLTISSLEPEDFAVYYCQQRRTFGQGTKVEIK
notes: Hybridoma-derived fully human IgG with a kappa light chain (VK L6/JK1); also called 12E1.G9
The term EC50 (read off the curve) denotes the midpoint of the concentration-response curve. Take B3: in test [2], the “EC50 (read off the curve)” value is about 0.05 µg/mL. The same molecule yielded an EC50 in test [3] of about 19.8 nM.
